Measured values as given in patent publication US6822073 (KIMBERLY CLARK WORLDWIDE, dated 2004).
One block for each binder: values may come before it. Bridges are numbered along the chain shown (N, C = ends). Where no end group is shown, it is not given here.

Assays:
[1] = biological target: T1, bovine pancreatic trypsin (bovine, UniProt P00760 24-246); test: isothermal titration calorimetry, 30 °C
T1 construct: It was dialyzed into the ITC buffer and flowed over the chip in SPR
Description: Figure 6: FIG. 6 provides an ITC analysis of the interaction between SAP and bovine pancreatic trypsin. SAP was dissolved in 20 mM cacodylate (pH 7.0), 20 mM NaCl at a final concentration of 2 mM. Trypsin was dialyzed into the same buffer and was used in the calorimeter cell at a concentration of 20 µM. No binding is evident throughout the titration. The temperature was maintained at 30° C. Forty injections of 5 µL each were employed with a 240 second re-equilibrium time between injections.
The ability of SAP, SAP-1, and SAP-2 to bind bovine pancreatic trypsin was measured by isothermal titration calorimetry (ITC). […] Under all experimental conditions, there is no detectable binding.

[2] = biological target: T1, bovine pancreatic trypsin; test: ITC, SAP-2 (1.0 mM) injected into trypsin (20 µM), 25 °C (FIG. 8)
[3] = biological target: T1, bovine pancreatic trypsin; test: ITC, SAP-1 (1 mM) injected into trypsin (20 µM), 293 K
Description: Figure 7: FIG. 7 provides an ITC analysis of the interaction between SAP-1 and bovine pancreatic trypsin. SAP-1 was dissolved in 20 mM cacadylate (pH 7.0), 20 mM NaCl at a final concentration of 1 mM. Trypsin was dialyzed into the same buffer and was used in the calorimeter cell at a concentration of 20 µM. The temperature was maintained at 20° C. Forty injections of 5 µL each were employed with a 240 second re-equilibrium time between injections.

[4] = biological target: T1, bovine pancreatic trypsin; test: ITC, SAP-1 injected into trypsin, 303 K

T1 sequence (P00760 24-246): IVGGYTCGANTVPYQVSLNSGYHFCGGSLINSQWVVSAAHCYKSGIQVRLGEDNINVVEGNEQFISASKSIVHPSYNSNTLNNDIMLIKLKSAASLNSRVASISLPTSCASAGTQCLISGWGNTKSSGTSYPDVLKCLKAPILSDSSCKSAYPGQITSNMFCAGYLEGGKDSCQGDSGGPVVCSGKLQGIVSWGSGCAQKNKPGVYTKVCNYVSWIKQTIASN

binding result [1]: no binding
B1: SAP (Synthetic Antibody Peptide), parental peptide backbone (designed binder)
chain: MCPSQPTYPGDPGPVEDLIRFYDNLQQWLNCVTAAC
modifications: disulfide 2-31
notes: Re-engineered avian pancreatic polypeptide with no insert; It was expressed in E. coli from pSAPe and purified; also called SAP peptide; SAP molecule

Ka [2]: 640000 M⁻¹ | Stoichiometry [2]: 0.995 | ΔH [2]: -31.2 kcal/mol | ΔS [2]: -16.2 cal mol^-1 K^-1
B2: SAP-2 (SAP backbone with the library-selected YKLKY insert) (designed binder)
chain: CPSQPTYPGDPYKLKYGPVEDLIRFYDNLQQWLNCVTAAC
notes: It was expressed in E. coli; In SPR it was coupled to the chip through the C-terminal cysteine thiol; also called recombinant SAP-2

Ka [3]: 1.65e+06 M⁻¹ | Stoichiometry [3]: 0.975 | ΔH [3]: -26.1 kcal/mol | ΔS [3]: -11.6 cal mol^-1 K^-1 | Ka [4]: 2.4e+06 M⁻¹ | Stoichiometry [4]: 0.99 | ΔH [4]: -15.4 kcal/mol | ΔS [4]: -21.1 cal mol^-1 K^-1
B3: SAP-1 (SAP backbone with the PYRIRF insert from Bovine Pancreatic Trypsin Inhibitor) (designed binder)
chain: CPSQPTYPGDPPYRIRFGPVEDLIRFYDNLQQWLNCVTAAC
notes: It was expressed in E. coli; In SPR it was coupled to the chip through the C-terminal cysteine thiol
